Source: paper PMC11179147 (Nature, 2023)
Positions count from the first letter of the chain named. In names and notes the source's numbering stands. Values belong to the binder of their own block, whether it stands above or below them.

Columns and labels:
[1] = molecular target: full-length R109A/K111A METTL1, unlabeled (human, UniProt Q9UBP6 1-276, R109A | K111A); assay: NMR titration
[2] = molecular target: full-length WT METTL1, unlabeled (without WDR4) (human, UniProt Q9UBP6 1-276); assay: NMR titration

binding result [1]: binds | binding result [2]: binds
B1: METTL1 1-75 (N-terminal segment of METTL1), isotope-labelled (domain or fragment, human, UniProt Q9UBP6 1-75, looked up)
chain: MAAETRNVAGAEAPPPQKRYYRQRAHSNPMADHTLRYPVKPEEMDWSELYPEFFAPLTQNQSHDDPKDKKEKRAQ

binding result [2]: binds
B2: S27D METTL1 1-75, isotope-labelled (domain or fragment, human, UniProt Q9UBP6 1-75, looked up)
chain: B1 chain with S27D
